The results in this text go back to patent US6897296.

The target in the assay is bacterially expressed recombinant Mch4 (GST-Mch4 fusion protein) (human).

As for DEVD-CHO (tetrapeptide DEVD aldehyde), the Ki amounted to 14 nM.
